From paper PMC4245128, “Influence of Nonenzymatic Posttranslational Modifications on Constitution, Oligomerization and Receptor Binding of S100A12” (PLoS ONE, 2014) come the findings set out here.

Series [1] deals with the molecule itself. As to the kind of experiment: SEC; data not shown; Superdex 75 10/300 GL, 10 mM Tris-HCl, 150 mM NaCl, 500 µM CaCl2, 10 µM ZnCl2, pH 7.4. A general note: Size exclusion chromatography separates by hydrodynamic size, large species first.
In series [2] the target is T1, recombinant human RAGE Fc chimera (human, UniProt Q15109 23-342).
T1 construct: receptor for advanced glycation end-products (RAGE), human; No catalogue number is printed; also called receptor for advanced glycation end-products; recombinant RAGE; source: bought: R&D Systems, from a mouse myeloma cell line
T1 sequence (Q15109 23-342, change not shown): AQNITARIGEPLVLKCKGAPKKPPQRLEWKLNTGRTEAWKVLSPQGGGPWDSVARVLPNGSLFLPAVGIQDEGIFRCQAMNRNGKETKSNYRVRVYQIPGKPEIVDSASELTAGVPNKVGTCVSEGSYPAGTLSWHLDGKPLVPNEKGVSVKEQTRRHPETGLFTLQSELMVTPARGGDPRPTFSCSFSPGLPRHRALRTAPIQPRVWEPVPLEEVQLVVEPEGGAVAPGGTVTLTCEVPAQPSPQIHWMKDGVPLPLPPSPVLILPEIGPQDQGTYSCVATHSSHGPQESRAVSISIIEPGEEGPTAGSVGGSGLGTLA
Description: SPR; Biacore X100, 25 °C, 30 µL/min; 7200 RU of RAGE Fc chimera amine-coupled to a CM5 chip; S100A12 samples injected (180 s association, 180 s dissociation); HBS-P (10 mM HEPES, 150 mM NaCl, 0.05% surfactant 20, pH 7.4) with 500 µM CaCl2 and 10 µM ZnCl2; reference cell subtracted; response given relative to the unincubated negative control. The conditions noted are these: both partners purified. (In general: Surface plasmon resonance follows binding to a sensor surface in real time, without labels.)

Series [3] concerns the molecule itself. Description: SEC; Superdex 75 10/300 GL, 10 mM Tris-HCl, 150 mM NaCl, 500 µM CaCl2, 10 µM ZnCl2, pH 7.4, 0.6 mL/min; calibrated with bovine serum albumin, carbonic anhydrase, cytochrome C and aprotinin.

The stoichiometry N is a count of units in the complex or per binding partner.

B1: CEL-S100A12 prepared with 3 mM pyruvate (natural protein, UniProt P80511 1-92, looked up)
chain: MTKLEEHLEGIVNIFHQYSVRKGHFDTLSKGELKQLLTKELANTIKNIKDKAVIDEIFQGLDANQDEQVDFQEFISLVAIALKAAHYHTHKE
modifications: N-epsilon-carboxyethyllysine (CEL) on all lysine residues; carboxyethylated N-terminus; no arginine modifications (CEL rate equal to or higher than in all MGO-modified samples)
notes: S100A12 as in m1, CEL-modified by reductive amination; Heterogeneous mixture; the extent of modification is not quantified; also called CEL-modified S100A12 (3 mM pyruvate); source: E. coli One Shot BL21 (DE3), purified; reductive amination with 3 mM pyruvate and NaBH3CN at 25 °C for 16 h, excess reagent removed by ultrafiltration
B1: the “stoichiometry N” value in series [1] was found to be 6. Moreover, the “percent binding (of the control)” value in series [2] stood at 80.9%.

B2: CEL-S100A12 prepared with 300 µM pyruvate (natural protein, UniProt P80511 1-92, looked up)
chain: MTKLEEHLEGIVNIFHQYSVRKGHFDTLSKGELKQLLTKELANTIKNIKDKAVIDEIFQGLDANQDEQVDFQEFISLVAIALKAAHYHTHKE
modifications: N-epsilon-carboxyethyllysine (CEL) on all lysine residues; carboxyethylated N-terminus; no arginine modifications (partial, modification rate rises with pyruvate)
notes: S100A12 as in m1, CEL-modified by reductive amination; Heterogeneous mixture; the extent of modification is not quantified; also called CEL-modified S100A12 (300 µM pyruvate); source: E. coli One Shot BL21 (DE3), purified; reductive amination with 300 µM pyruvate and NaBH3CN at 25 °C for 16 h, excess reagent removed by ultrafiltration
Take B2: in series [1], the “stoichiometry N” value stood at 6.

B3: CEL-S100A12 prepared with 15 mM pyruvate (natural protein, UniProt P80511 1-92, looked up)
chain: MTKLEEHLEGIVNIFHQYSVRKGHFDTLSKGELKQLLTKELANTIKNIKDKAVIDEIFQGLDANQDEQVDFQEFISLVAIALKAAHYHTHKE
modifications: N-epsilon-carboxyethyllysine (CEL) on all lysine residues; carboxyethylated N-terminus; no arginine modifications (partial, modification rate rises with pyruvate)
notes: S100A12 as in m1, CEL-modified by reductive amination; Heterogeneous mixture; the extent of modification is not quantified; also called CEL-modified S100A12 (15 mM pyruvate); source: E. coli One Shot BL21 (DE3), purified; reductive amination with 15 mM pyruvate and NaBH3CN at 25 °C for 16 h, excess reagent removed by ultrafiltration
With B3, in series [1], the “stoichiometry N” value stood at 6.

B4: recombinant S100A12 (natural protein, UniProt P80511 1-92, looked up)
chain: MTKLEEHLEGIVNIFHQYSVRKGHFDTLSKGELKQLLTKELANTIKNIKDKAVIDEIFQGLDANQDEQVDFQEFISLVAIALKAAHYHTHKE
notes: N-terminal methionine only partially removed (M1S100A12 predominant); Mixture of chains with and without M1; The controls incubated without reagent are written as this molecule; also called M1S100A12; unincubated negative control; source: E. coli One Shot BL21 (DE3), purified (chitin column, on-column intein cleavage with DTT, dialysis, NAP-5)
Turning to B4, the “stoichiometry N” value in series [3] stood at 6.

B5: CEL-S100A12 prepared with 30 mM pyruvate (natural protein, UniProt P80511 1-92, looked up)
chain: MTKLEEHLEGIVNIFHQYSVRKGHFDTLSKGELKQLLTKELANTIKNIKDKAVIDEIFQGLDANQDEQVDFQEFISLVAIALKAAHYHTHKE
modifications: N-epsilon-carboxyethyllysine (CEL) on all lysine residues; carboxyethylated N-terminus; no arginine modifications (highest modification rate)
notes: S100A12 as in m1, CEL-modified by reductive amination; Heterogeneous mixture; the extent of modification is not quantified; also called CEL-modified S100A12 (30 mM pyruvate); CEL-S100A12 at the highest modification rate; source: E. coli One Shot BL21 (DE3), purified; reductive amination with 30 mM pyruvate and NaBH3CN at 25 °C for 16 h, excess reagent removed by ultrafiltration
Regarding B5, in series [1], the “stoichiometry N” value was 6. The “percent binding (of the control)” value in series [2] turned out to be 34%.

B6: CEL-S100A12 prepared with 600 µM pyruvate (natural protein, UniProt P80511 1-92, looked up)
chain: MTKLEEHLEGIVNIFHQYSVRKGHFDTLSKGELKQLLTKELANTIKNIKDKAVIDEIFQGLDANQDEQVDFQEFISLVAIALKAAHYHTHKE
modifications: N-epsilon-carboxyethyllysine (CEL) on all lysine residues; carboxyethylated N-terminus; no arginine modifications (partial, modification rate rises with pyruvate)
notes: S100A12 as in m1, CEL-modified by reductive amination; Heterogeneous mixture; the extent of modification is not quantified; also called CEL-modified S100A12 (600 µM pyruvate); source: E. coli One Shot BL21 (DE3), purified; reductive amination with 600 µM pyruvate and NaBH3CN at 25 °C for 16 h, excess reagent removed by ultrafiltration
Take B6: the “stoichiometry N” value in series [1] is 6.

B7: S100A12 incubated with 40 µM MGO (natural protein, UniProt P80511 1-92, looked up)
chain: MTKLEEHLEGIVNIFHQYSVRKGHFDTLSKGELKQLLTKELANTIKNIKDKAVIDEIFQGLDANQDEQVDFQEFISLVAIALKAAHYHTHKE
modifications: hydroimidazolone, MGO-hemiaminal/CEA, argpyrimidine and tetrahydropyrimidine at R21; CEL at K3, K30, K34, K39, K49, K83, K91; carboxyethylation of the N-terminus (partial)
notes: S100A12 as in m1, chemically modified with methylglyoxal; Heterogeneous mixture of modified and unmodified chains; also called MGO-modified S100A12 (40 µM MGO); source: E. coli One Shot BL21 (DE3), purified; incubated with 40 µM methylglyoxal at 37 °C for 1, 3 or 7 days, excess reagent removed by ultrafiltration
Consider B7, for which, in series [1], the “stoichiometry N” value amounted to 6.

B8: S100A12 incubated with 400 µM MGO (natural protein, UniProt P80511 1-92, looked up)
chain: MTKLEEHLEGIVNIFHQYSVRKGHFDTLSKGELKQLLTKELANTIKNIKDKAVIDEIFQGLDANQDEQVDFQEFISLVAIALKAAHYHTHKE
modifications: hydroimidazolone, MGO-hemiaminal/CEA, argpyrimidine and tetrahydropyrimidine at R21; CEL at K3, K30, K34, K39, K46, K49, K51, K83, K91; carboxyethylation of the N-terminus (partial)
notes: S100A12 as in m1, chemically modified with methylglyoxal; Heterogeneous mixture; by SEC a minor part was not present as hexamer; also called MGO-modified S100A12 (400 µM MGO); source: E. coli One Shot BL21 (DE3), purified; incubated with 400 µM methylglyoxal at 37 °C for 1, 3 or 7 days, excess reagent removed by ultrafiltration
Turning to B8, the “stoichiometry N” value in series [3] turned out to be 6.

B9: S100A12 incubated with 4 mM MGO (natural protein, UniProt P80511 1-92, looked up)
chain: MTKLEEHLEGIVNIFHQYSVRKGHFDTLSKGELKQLLTKELANTIKNIKDKAVIDEIFQGLDANQDEQVDFQEFISLVAIALKAAHYHTHKE
modifications: hydroimidazolone, MGO-hemiaminal/CEA, argpyrimidine and tetrahydropyrimidine at R21; CEL at K3, K30, K34, K39, K46, K49, K51, K83, K91; carboxyethylation of the N-terminus; a +126 Da modification not assigned to a residue
notes: S100A12 as in m1, chemically modified with methylglyoxal; no signal of the native protein left in MALDI-TOF-MS; By SEC only a small part was hexamer; also called MGO-modified S100A12 (4 mM MGO); MGO-S100A12; source: E. coli One Shot BL21 (DE3), purified; incubated with 4 mM methylglyoxal at 37 °C for 1, 3 or 7 days, excess reagent removed by ultrafiltration
On to B9, for which the “stoichiometry N” value in series [3] is 6.

B10: S100A12 incubated with 4 µM MGO (natural protein, UniProt P80511 1-92, looked up)
chain: MTKLEEHLEGIVNIFHQYSVRKGHFDTLSKGELKQLLTKELANTIKNIKDKAVIDEIFQGLDANQDEQVDFQEFISLVAIALKAAHYHTHKE
modifications: hydroimidazolone (+54 Da) and MGO-hemiaminal/CEA (+72 Da) at R21 (partial, low modification degree)
notes: S100A12 as in m1, chemically modified with methylglyoxal; Heterogeneous mixture of modified and unmodified chains; also called MGO-modified S100A12 (4 µM MGO); source: E. coli One Shot BL21 (DE3), purified; incubated with 4 µM methylglyoxal at 37 °C for 1, 3 or 7 days, excess reagent removed by ultrafiltration
Take B10: the “stoichiometry N” value in series [1] was 6.
